Data: US20130274692A1, “SUBCONJUCTIVAL IMPLANT FOR POSTERIOR SEGMENT DRUG DELIVERY” (priority 2010, published 2013)
Values after ≈ are worked out from the molar mass of the structure shown. Like-named read-outs stand apart in the source and are kept apart here.

What was measured:
[1] = cited from earlier work
[2] = human eye (Lucentis package insert); listed as ranibizumab; cited from earlier work
[3] = tested on: laser photocoagulation treatment-induced Grade IV choroidal neovascularization (CNV) lesions; settings: intravitreal injection, all doses tested; cited from earlier work
[4] = Solubility of triamcinolone acetonide; type: physicochemical; settings: saline or isotonic; 37 C in 0.2 M potassium chloride
Protocol: Consider a device with 10 uL reservoir volume loaded with 0.4 mg using a commercial drug product (40 mg/mL triamcinolone acetonide). […] The target release rate is 1 ug/day based upon published clinical data. As an example, consider the 0.2 media grade stainless steel characterized in Example 8 with P/F=0.12 and a thickness of 0.5 mm. […] This could be achieved with a cylindrical device having an inner diameter of 2 mm and a length of porous tubing of 1 mm. Alternatively, the end of the device could be a porous cup with height of 0.8 mm (0.5 mm thick porous face plus 0.3 mm length) of porous tubing.

Compound | Half-life ([1]; monkey model (Gaudreault et al.), parameter of Simulations 1-5) [days] | half-life in the vitreous ([1]; rabbit and monkey, listed as ranibizumab) | half-life in the vitreous [2] [days] | development of Grade IV CNV lesions [3] | solubility [4] [µg/mL]
ranibizumab [Lucentis] | 2.63 | approximately 3 days | ~9 | completely inhibited | 
CC1(C)O[C@@H]2C[C@H]3[C@@H]4CCC5=CC(=O)C=C[C@]5(C)[C@@]4(F)[C@@H](O)C[C@]3(C)[C@]2(C(=O)CO)O1 [triamcinolone acetonide] |  |  |  |  | 19 (≈ 43.7 µM)
